The source of these data is publication PMC5073374.

The target of this test is Link module from human TSG-6 (Link_TSG6) (human) (UniProt P98066). Put plainly: AUC.

By stoichiometry N is commonly meant a count of units in the complex or per binding partner. On to “Link module from human TSG-6 (Link_TSG6) (from UniProt P98066 36-133) (domain or fragment)”, for which the stoichiometry N was 2.
